B1: probasin ARE-2 (dsDNA)
DNA 1: GTAAAGTACTCCAAGAACCTATTT
DNA 2: AAATAGGTTCTTGGAGTACTTTAC
B2: probasin ARE-1 (dsDNA)
DNA 1: ATAGCATCTTGTTCTTAGT
DNA 2: ACTAAGAACAAGATGCTAT

Assays:
Details in all cases: tags: GST fusion, expressed in E. coli; chain copies: 2
[1] = molecular target: T1, GST-AR2 (androgen receptor DNA-binding domain and hinge region) (Rattus norvegicus, UniProt P15207 P15207:541-650); assay: footprint; site -140 to -117 protected within probasin 5'-flanking DNA
Description: (§1) The DNase I footprinting was performed essentially as described (Von der Ahe et al., 1993; Rennie et al., 1993). Proteins (10 ng to 18 µg) were incubated with 20,000 cpm of the labelled DNA in 100 µl of DNA binding buffer for 30 min at 20° C. After adjusting the samples to 4 mM MgCl_2 and 2.5 CaCl_2 mM, 5 ng of DNase I was added and allowed to digest the DNA for 2 minutes at 20° C. The reaction was stopped by adding 100 µl of stop buffer (0.25% SDS, 0.3M EGTA, and 500 µg/ml of proteinase K) and incubated for 1 hour at 37° C. The samples were extracted with phenol-chloroform; precipitated with 0.2M sodium acetate, 85 µg/ml carrier tRNA, and 2 volumes of ethanol; redissolved in 3 µl of formamide dye solution. After heating at 70° C. for 10 minutes and rapid cooling on ice, the samples were loaded, together with an A+G Maxam-Gilbert sequencing reaction to obtain a purine ladder, on 7% polyacrylamide/urea gels (acrylamide:bis, 30:1) and run (Rennie et al., 1993). The gels were dried and set up for autoradiography.
(§2) The androgen response elements (ARE) are located at −241 to −223 (ARE-1) and −140 to −117 (ARE-2). The sequence of ARE-1 and ARE-2 in the 5'-flanking PB DNA were determined using DNase I footprinting assays with peptides containing the DNA-binding domain of the androgen receptor and later bioassay of the functional domains. […]

[2] = molecular target: T2, GST-AR1 (androgen receptor DNA- and steroid-binding domains) (Rattus norvegicus, UniProt P15207 P15207:541-902); assay: as above
Description: as §1, §2

[3] = molecular target: T1, GST-AR2 (androgen receptor DNA-binding …); assay: footprint; site -236 to -223 protected within probasin 5'-flanking DNA
Description: as §1, §2

[4] = molecular target: T2, GST-AR1 (androgen receptor DNA- and …); assay: as above
Description: as §1, §2

T1 sequence (P15207 541-650, one chain of several): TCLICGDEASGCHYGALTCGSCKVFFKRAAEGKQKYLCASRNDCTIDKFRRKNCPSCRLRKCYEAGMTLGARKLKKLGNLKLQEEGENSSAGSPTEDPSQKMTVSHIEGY
T2 sequence (P15207 541-902, one chain of several): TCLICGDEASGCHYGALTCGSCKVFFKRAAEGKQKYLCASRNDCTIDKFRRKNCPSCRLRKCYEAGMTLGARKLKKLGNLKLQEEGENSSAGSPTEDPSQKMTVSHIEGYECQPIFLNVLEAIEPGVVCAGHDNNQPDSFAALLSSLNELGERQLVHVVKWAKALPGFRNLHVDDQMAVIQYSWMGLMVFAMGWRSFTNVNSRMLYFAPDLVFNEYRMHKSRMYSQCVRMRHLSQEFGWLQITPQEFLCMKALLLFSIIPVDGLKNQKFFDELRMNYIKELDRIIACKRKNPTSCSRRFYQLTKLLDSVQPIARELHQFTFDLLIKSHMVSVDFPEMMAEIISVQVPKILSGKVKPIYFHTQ

| Binder | binding result [1] | binding result [2] | binding result [3] | binding result [4] |
| --- | --- | --- | --- | --- |
| B1 | binds | binds | – | – |
| B2 | – | – | binds | binds |

— patent US5783681, “Androgen regulation with DNA sequences of rat probasin gene” (University of Manitoba)
